Data reported in US20250382376A1 (FUDAN UNIVERSITY, published 2025).

T1: CD73 on the surface of human cells (human, UniProt P21589 27-549)
T1 sequence (looked up): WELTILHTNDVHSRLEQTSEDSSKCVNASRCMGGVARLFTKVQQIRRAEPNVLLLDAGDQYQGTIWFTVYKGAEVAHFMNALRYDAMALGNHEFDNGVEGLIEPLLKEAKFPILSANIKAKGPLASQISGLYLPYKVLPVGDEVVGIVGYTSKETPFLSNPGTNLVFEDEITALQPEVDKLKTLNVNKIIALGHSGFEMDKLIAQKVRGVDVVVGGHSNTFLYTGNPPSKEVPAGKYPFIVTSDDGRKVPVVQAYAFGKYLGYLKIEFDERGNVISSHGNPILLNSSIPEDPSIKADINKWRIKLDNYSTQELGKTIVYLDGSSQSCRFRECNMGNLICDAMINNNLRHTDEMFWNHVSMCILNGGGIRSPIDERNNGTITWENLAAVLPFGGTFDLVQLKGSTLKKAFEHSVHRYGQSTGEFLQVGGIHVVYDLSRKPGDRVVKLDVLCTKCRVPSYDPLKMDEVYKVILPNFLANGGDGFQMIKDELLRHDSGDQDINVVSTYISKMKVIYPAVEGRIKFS

T2: extracellular domain of human CD73 protein, C-terminus polyhistidine-tagged (human, UniProt P21589 27-547)
T2 construct: also the immunogen; also called CD73-ECD; human CD73-ECD
T2 sequence: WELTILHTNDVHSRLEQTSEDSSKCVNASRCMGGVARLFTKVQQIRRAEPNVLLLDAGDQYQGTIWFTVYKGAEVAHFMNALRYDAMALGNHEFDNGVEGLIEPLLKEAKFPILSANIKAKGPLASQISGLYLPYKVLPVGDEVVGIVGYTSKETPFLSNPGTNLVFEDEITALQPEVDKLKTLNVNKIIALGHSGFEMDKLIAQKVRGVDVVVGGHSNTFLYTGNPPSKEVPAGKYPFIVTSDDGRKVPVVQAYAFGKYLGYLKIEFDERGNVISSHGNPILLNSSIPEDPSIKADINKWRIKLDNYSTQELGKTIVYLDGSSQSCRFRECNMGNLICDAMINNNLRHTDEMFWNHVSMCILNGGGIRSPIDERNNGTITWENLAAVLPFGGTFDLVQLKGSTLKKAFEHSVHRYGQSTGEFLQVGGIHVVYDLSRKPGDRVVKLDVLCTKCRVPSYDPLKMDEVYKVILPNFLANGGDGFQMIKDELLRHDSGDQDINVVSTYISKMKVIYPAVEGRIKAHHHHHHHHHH

T3: cynomolgus monkey CD73-ECD (cynomolgus monkey, UniProt A0A2K5V5U7 27-549)
T3 construct: also called cynomolgus CD73-ECD
T3 sequence: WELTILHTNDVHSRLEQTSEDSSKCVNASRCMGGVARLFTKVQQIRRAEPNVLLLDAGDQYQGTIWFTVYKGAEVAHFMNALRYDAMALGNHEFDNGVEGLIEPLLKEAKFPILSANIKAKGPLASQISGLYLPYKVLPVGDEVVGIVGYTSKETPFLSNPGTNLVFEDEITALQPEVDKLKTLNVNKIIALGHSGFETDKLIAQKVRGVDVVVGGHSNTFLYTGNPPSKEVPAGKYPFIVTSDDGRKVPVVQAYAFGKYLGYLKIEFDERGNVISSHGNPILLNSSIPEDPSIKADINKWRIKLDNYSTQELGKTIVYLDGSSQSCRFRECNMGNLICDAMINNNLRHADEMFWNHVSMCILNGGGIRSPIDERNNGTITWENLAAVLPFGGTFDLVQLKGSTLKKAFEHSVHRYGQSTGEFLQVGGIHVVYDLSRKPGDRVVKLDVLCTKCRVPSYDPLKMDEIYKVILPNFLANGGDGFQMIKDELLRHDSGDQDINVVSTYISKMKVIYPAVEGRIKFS

T4: human recombinant CD73 enzyme (CD73 extracellular region) (human, UniProt P21589 27-549)
T4 sequence (looked up): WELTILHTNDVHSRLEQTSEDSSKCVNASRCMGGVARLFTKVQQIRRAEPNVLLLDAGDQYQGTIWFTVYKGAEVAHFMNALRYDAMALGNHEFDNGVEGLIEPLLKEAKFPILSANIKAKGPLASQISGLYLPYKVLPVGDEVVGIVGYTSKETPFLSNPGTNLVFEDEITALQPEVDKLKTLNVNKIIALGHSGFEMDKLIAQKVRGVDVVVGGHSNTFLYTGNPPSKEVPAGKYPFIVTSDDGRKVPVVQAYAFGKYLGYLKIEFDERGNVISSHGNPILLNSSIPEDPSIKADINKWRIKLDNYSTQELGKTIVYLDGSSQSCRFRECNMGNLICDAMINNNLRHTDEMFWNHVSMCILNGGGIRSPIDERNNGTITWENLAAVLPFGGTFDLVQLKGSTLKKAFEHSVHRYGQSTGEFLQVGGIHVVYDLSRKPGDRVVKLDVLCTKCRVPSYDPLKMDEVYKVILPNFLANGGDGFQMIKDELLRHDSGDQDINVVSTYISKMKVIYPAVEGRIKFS


Key:
[1] = target: T1, CD73 on the surface of human cells; assay: cell-based or functional assay
[2] = target: T2, extracellular domain of human CD73 …; assay: ELISA, coated human CD73-ECD, method of Example 3
Description: (§1) The CD73 protein extracellular region (CD73-ECD) was diluted to 1 μg/mL using the coating solution, and an ELISA plate was coated at 100 μL/well at 4° C. overnight. Excess antigens were washed away, and the plate was blocked with 1% BSA at room temperature for 2 hours. Then, 5-fold gradient dilutions of each monoclonal antibody were added at 100 μL/well and incubated at room temperature for 1 hour. Unbound antibodies were washed away, and an appropriate concentration of Staphylococcal protein A labeled with horseradish peroxidase was added at 100 μL/well and incubated at room temperature for 0.5 hours. Unbound secondary antibodies were washed away, and TMB color development solution was added to react for about 15 minutes. 1M HCL was added at 50 µL/well to terminate the color development reaction, and then the absorbance was measured at 450 nm and the data was analyzed.
(§2) The affinity of the humanized antibody to human and cynomolgus CD73-ECD was detected according to the ELISA determination method of Example 3.

[3] = target: T3, cynomolgus monkey CD73-ECD; assay: ELISA, coated cynomolgus CD73-ECD, method of Example 3
Description: as §1, §2

[4] = target: T1, CD73 on the surface of human cells; assay: flow cytometry on SW1573 cells
Description: (§3) 100 μL of the test antibodies diluted from 10 μg/mL to 0.016 μg/mL in a 5-fold gradient were used as the primary antibodies, and were mixed with 1×10⁵ tumor cells suspended in 100 μL RPMI-1640 serum-free medium to make a final concentration of 5 μg/mL diluted to 0.008 μg/mL, and then incubated at 4° C. for 1 h. The cells were washed twice with PBS to remove unbound primary antibodies, and then the target cells were incubated with 200 μLPE-labeled secondary antibody at 2 μg/mL at 4° C. for 30 min. The cells were washed twice with PBS to remove unbound secondary antibodies, and finally the cells were resuspended in 200 μL PBS. The binding affinity of the test antibodies to CD73 on the surface of the corresponding cells was measured by flow cytometry.

[5] = target: T2, extracellular domain of human CD73 …; assay: ELISA, coated CD73-ECD, method of Example 3
Description: as §1
(§4) Based on the above mutants, 5-E11ASCS was designed and prepared, and the CD73 antigen ELISA binding affinity test was performed according to the method of Example 3.

[6] = target: T2, extracellular domain of human CD73 …; assay: ELISA on coated human CD73-ECD (the text rounds this value to 0.018 µg/mL)
Description: as §1, §4

[7] = target: T4, human recombinant CD73 enzyme (CD73 …); assay: cell-based or functional assay
[8] = target: T1, CD73 on the surface of human cells; assay: flow cytometry on NCI-H1299 cells
[9] = target: T1, CD73 on the surface of human cells; assay: Flow cytometry on NCI-H1299 cells
Description: as §3
The binding affinity of the humanized antibodies to NCI-H1299 cells was detected according to the method for determining the binding affinity of CD73 on the surface of tumor cells in Example 5.

[10] = target: T2, extracellular domain of human CD73 …; assay: SPR as the filing names it (method of Example 2, ForteBio OCTET R2)
Description: Surface plasmon resonance (SPR) assay: Protein A sensor was used to immobilize the antibodies, with an immobilization height of about 1.5 nM. […] Affinity detection: equilibrium for 60 s, binding for 180 s, dissociation for 180 s, at a detection temperature of 25° C. Kinetic characterization analysis was performed using the ForteBio OCTET R2 system.
The affinity of the humanized antibody to the antigen was detected by the surface plasmon resonance (SPR) assay method in Example 2.

[11] = target: T2, extracellular domain of human CD73 …; assay: ForteBio Octet (the filing calls it SPR), by the method of Example 2 according to the text; sheet prints 'Loading Sample ID: FDYKSD-02-His'; traces labelled 50, 25, 12.5, 6.25, 3.13

Binder | IC50, inhibition of the catalytic function of CD73 enzyme on MDA-MB-231 cells [1] [µg/mL] | EC50 [2] [µg/mL] | EC50 [3] [µg/mL] | EC50 [4] [µg/mL] | EC50 [5] [µg/mL] | EC50 [6] [µg/mL] | IC50, inhibition of the catalytic function of recombinant human CD73 enzyme [7] [µg/mL] | EC50 [8] [µg/mL] | Max MFI [9] [MFI] | Kd [10] [nM] | koff [11] [s⁻¹] | kon [11] [M⁻¹ s⁻¹] | EC50, reversal of the AMP inhibition of human T lymphocyte proliferation [1] [µg/mL]
5-E11 derived antibody 5-E11ASCS (VHH) VHH: ALQLVESGGGLVQPGGSLRLSCEVSGFTLDYYNIGWFRQAPGKEREGVSSSSASGGSTYYADSVKGRFTISRDNAKNTVYLQMNSLKPEDTGVYYCAAYRGWHPSLDARVYDYWGQGTEVTVSS | – | – | – | 0.015 | 0.018 | 0.0179 | – | – | – | – | – | – | –
humanized antibody 3D7-HM8-FC1 (Fc fusion) heavy: QRQLVESGGGLVQPGGSLRLSCAASGFLLDYYVIGWFRQAPGKEREGVSCISGSDRSTYYADSVKGRFTISRDNSKNTVYLQMSSLRAEDTAVYYCAADPSPVTVQAMCLPRFPVPYWGQGTLVTVSSEPKSSDKTHTCPPCPAPEFEGGPSVFLFPPKPKDTLMISRTPEVTCVVVDVSHEDPEVKFNWYVDGVEVHNAKTKPREEQYNSTYRVVSVLTVLHQDWLNGKEYKCKVSNKALPASIEKTISKAKGQPREPQVYTLPPSRDELTKNQVSLTCLVKGFYPSDIAVEWESNGQPENNYKTTPPVLDSDGSFFLYSKLTVDKSRWQQGNVFSCSVMHEALHNHYTQKSLSLSPGK | – | – | – | – | – | – | 0.0555 | 0.043 | 106000 | 1.17 | 0.000913 | 779000 | –

More lines, now with the values ahead:

IC50, inhibition of the catalytic function of CD73 enzyme on MDA-MB-231 cells [1] [µg/mL] | EC50 [2] [µg/mL] | EC50 [3] [µg/mL] | EC50 [4] [µg/mL] | EC50 [5] [µg/mL] | EC50 [6] [µg/mL] | IC50, inhibition of the catalytic function of recombinant human CD73 enzyme [7] [µg/mL] | EC50 [8] [µg/mL] | Max MFI [9] [MFI] | Kd [10] [nM] | koff [11] [s⁻¹] | kon [11] [M⁻¹ s⁻¹] | EC50, reversal of the AMP inhibition of human T lymphocyte proliferation [1] [µg/mL] | Binder
0.126 | 0.00209 | 0.00206 | – | – | – | – | – | – | – | – | – | – | humanized antibody 3D7-HM9-FCWT (Fc fusion, 3D7-HM9 VH on an Fc called FCWT; not shown: FCWT Fc segment) VHH: QRQLVESGGGLVQPGGSLRLSCAASGFLLDYYVIGWFRQAPGKEREGVSCISGSDRSTYYADSVKGRFTISRDNAKNTVYLQMSSLRAEDTAVYYCAADPSPVTVQAMCLPRFPVPYWGKGTLVTVSS
– | – | – | – | – | – | 0.0456 | 0.02 | 103000 | 1.3 | 0.00091 | 702000 | – | humanized antibody 3D7-HM7-FC1 (Fc fusion) heavy: QRQLVESGGGLVQPGGSLRLSCAASGFLLDYYVIGWFRQAPGKEREGVSCISGSDRSTYYADSVKGRFTISRDNSKNTVYLQMGSLRAEDTAVYYCAADPSPVTVQAMCLPRFPVPYWGQGTLVTVSSEPKSSDKTHTCPPCPAPEFEGGPSVFLFPPKPKDTLMISRTPEVTCVVVDVSHEDPEVKFNWYVDGVEVHNAKTKPREEQYNSTYRVVSVLTVLHQDWLNGKEYKCKVSNKALPASIEKTISKAKGQPREPQVYTLPPSRDELTKNQVSLTCLVKGFYPSDIAVEWESNGQPENNYKTTPPVLDSDGSFFLYSKLTVDKSRWQQGNVFSCSVMHEALHNHYTQKSLSLSPGK
0.098 | 0.0025 | 0.00188 | – | – | – | 0.0187 | 0.02 | 105000 | 0.638 | 0.00086 | 1.35e+06 | 0.024 | humanized antibody 3D7-HM9-FC1 (Fc fusion) heavy: QRQLVESGGGLVQPGGSLRLSCAASGFLLDYYVIGWFRQAPGKEREGVSCISGSDRSTYYADSVKGRFTISRDNAKNTVYLQMSSLRAEDTAVYYCAADPSPVTVQAMCLPRFPVPYWGKGTLVTVSSEPKSSDKTHTCPPCPAPEFEGGPSVFLFPPKPKDTLMISRTPEVTCVVVDVSHEDPEVKFNWYVDGVEVHNAKTKPREEQYNSTYRVVSVLTVLHQDWLNGKEYKCKVSNKALPASIEKTISKAKGQPREPQVYTLPPSRDELTKNQVSLTCLVKGFYPSDIAVEWESNGQPENNYKTTPPVLDSDGSFFLYSKLTVDKSRWQQGNVFSCSVMHEALHNHYTQKSLSLSPGK
